The nanobody polyreactivity screen of Harvey et al. (2022)

Test: yeast display, Sf9 membrane polyspecificity reagent, FACS + sequencing; frameworks hold sequencing errors
Outline: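 Genes from sorted yeast were amplified by colony PCR, read by MiSeq 2 × 250 sequencing and filtered on CDR length. These cells carried a synthetic nanobody library in Saccharomyces cerevisiae BJ5465 and were sorted by FACS into low and high (top ~1%) gates on anti-HA and streptavidin fluorescence. Polyreactivity is labelled according to the gate of origin.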

| Sequence | polyreactivity (PSR sort gate) |
| --- | --- |
| QVQLVESGGGLVQAGGSLRLSCAATGIIFSWYDMGWYRQAPGKERELVAAITSGGSTYYADSVKGRFTISRDNAKNTVYLLMNSLKPEDTAVYYCNRYSYLFPYYWKYDYCGQGTQVTVSS | high polyreactivity |
| QVQLVESGGGLVQAGGSLRLSCAATGITFYINAMGSYRQAPGKERELVAVIDSRGSSTFYADSVKGRFTISLDYAKNTVYLQMNSLKPEDTAVYYCAVEGYPGRYRDPGDLYYYWGQGTQVTVSS | low polyreactivity |
| QVQLVESGGGLVQAGGSLRLSCAATGRIFAYNTMGWYRQAPGKERELVAVITSGGSTNYADSVKGRFTISRDNAKNTVYLQMNSLNPEDTAVYYCAKRPYGRSGGSRYDYWGQGTQVTVSS | high polyreactivity |
| QVQLVESGGGLVQAGGSLRLSCAATGRIFDYNVMGWSRQAPGKERELVADINGCGGRTNYADSVKGRFTISRDNAKNSVYLQMNSLKPEDTAVYDCAAEWYSYGARSSYGGSRNDYWGQGSQVTVSS | low polyreactivity |
| QVQLVESGGGLVQAGGSLRLSCAATGRIFGQNAMGWYRQAPGKERELVAAINWSVGSTYYADSVKGRFTISRDNAKNTVYLQMNSLKPEDTGVYYCAAGNLYYAEYDYWGQGTQVTVSS | low polyreactivity |
| QVQLVESGGGLVQAGGSLRLSCAATGRIFSIYAMGWYRQAPGKERELVAAISGGGSTYYADSVKGRFTISRDNAKNTVYLQMNSLKPEDTAVYYCAALQSYYRYFGYDYWGQGTQVTVSS | low polyreactivity |
| QVQLVESGGGLVQAGGSLRLSCAATGRIFTRNAMGWYRQAPGKERELVAAISYSGGTTYYADSVKGRFTISRDNAKITVYLQMNSLKPDDTAVYDCAALRPTQRYFTYDYWGHGTQVTVSS | high polyreactivity |
| QVQLVESGGGLVQAGGSLRLSCAATGRIFWDYAMGWYRQAPGKERELVAANAWGSGRTYYADSVKGRFTISRDNAKNTVNLQMNSLKPEDTAVYYCHAVRYLFIYPRYDYWGQGTQVTVSS | high polyreactivity |
| QVQLVESGGGLVQAGGSLRLSCAATGRIFYPYAMGWYRQAPGKERELVATIRWRGGSTRYADSVKGRFTISRDNAKNTVFLQMNSLKPEDTAVYYCAAGFKVEPTDLYYWGQGTQVTVSS | high polyreactivity |
| QVQLVESGGGLVQAGGSLRLSCAATGRTIHGYAMGWYRQAPGKERELVAAITGTGGRTYYADSVKGRFTISRDNAKNTVYLQMNSLKPEDTAVYYCAARPWIKSGYWGQGTQVTVSS | high polyreactivity |
| QVQLVESGGGLVQAGGSLRLSCAATGSIFIRYAIGWYRHEPGKERELVAAITSTGSTSYADSVKWRFTISRDNAKNTVYLQMNSLKPEDTAVYYCAAAGFWHGYFGYGYWGQGTQVTVSS | low polyreactivity |
| QVQLVESGGGLVQAGGSLRLSCAATGSIFNVNAMGWYRQAPGKERELVAAISSGGDTYYADSVKGRFTISRDNAKNTVYIQMNSLQPEDTAVYYCAKQSYTLYTLLYDYWGQGTQVTVSS | low polyreactivity |
| QVQLVESGGGLVQAGGSLRLSCAATGSIFRRNAMGGYRQAPGKERELVAAISSNGGSTYYADSVKGRFTISRDNAKNTVYLQMNSLKPEDTAVYYCNALGRVRYPFDYWGQGTQVTVSS | high polyreactivity |
| QVQLVESGGGLVQAGGSLRLSCAATGSNLIYVMGGYRQAPGKERELVASITFSGGSTYYADSVKGRFTISRDNAKNTVYLQMNRLKPEDTAVYYCAAVPLWDYKFFYYMLYDYWGQGTQVTVSS | low polyreactivity |
| QVQLVESGGGLVQAGGSLRLSCAAWSIFYLNAMGLYRQAPGKERELVAAISWGGGSTNYADSVKGRFTISRDNAKNTVYLQMNSLKPEDTAVYYCARTPESLSAREFNYWGQGTEVTVSS | low polyreactivity |
| QVQLVESGGGLVQAGGSLRLSCAAYGFFFPFYTMGWYRQAPGKERELVAAIRYSAGRTYYADSVKGRFTISRDNAKNTVYLQMNSLKPEDTAVYYCAADAIYSRAWGFDYWGQGTQVTVSS | high polyreactivity |
| QVQLVESGGGLVQAGGSLRLSCAAYGFISPSYAMGWYRQAPGKERELVAAIRSSDGSTYYADSVKGRFTISRDNAKNTVYLQMNSLKPEDTAVYYCAARRVTSPFGSDSWGQGTQVTVSS | low polyreactivity |
| QVQLVESGGGLVQAGGSLRLSCAAYGFIVPAYAMGWYRQAPGKERELVAAISWDGGSTYYADSVKGRFTISRDNAKNTVYLQMNSLKPEDTPVYYCAATFFADTWYGWYDYWGQGTQVTVSS | high polyreactivity |
| QVQLVESGGGLVQAGGSLRLSCAAYGFTFAFYALGRYRQSPGKERELVAAITGSGGSTYYADSVKGRFTISRDNSKNTVYLQMNSLKPEDTAVYYCNTYTYYSRMDYWGQGTQVTVSS | high polyreactivity |
| QVQLVESGGGLVQAGGSLRLSCAAYGGIFPSYAMGWYRQAPGKERELVAAISRTGGSTYYADSVKGRFTISRDNAKNTVYLQMNSLKPEDTAVYYCAAEWAWYLGVYRRDRMYWGQGTQVTVSS | high polyreactivity |
| QVQLVESGGGLVQAGGSLRLSCAAYGINFLQYAMGWYRQAPGKDRELVAAITRRGDRTYYADSVKGRFTISRDNAKYTVYLQMISLKPEDTAVYYCAASYWYRDYYYWGQGTQVTVSS | high polyreactivity |
| QVQLVESGGGLVQAGGSLRLSCAAYGLTFRVYTMGWYRQAPGKERELVAAISTDGGSTYYADSVKGRFTISRDNAKNTVYFQMNSLKPEDTAVYYCAAKWYSYRWTQFDYWGQGTQVSVSS | high polyreactivity |
| QVQLVESGGGLVQAGGSLRLSCAAYGNIFHRNAMGWYRKAPGKESEVVAAISWSGGSTYYADSVKGRFTISRDNAKNTVYLQMNSLKPEDTAVYYCNAYYYYRFKQSHPGLRSYYWGQGTQVTVSS | high polyreactivity |
| QVQLVESGGGLVQAGGSLRLSCAAYGNIIYYNAMGWYRQATGKERELVASITWSGGSTYYADSVKGRFTISRDNAKNTVYLQMNSLKPEDTAVYYCAAGYSPPKPYSGGYYYWGQGTQVTVSS | low polyreactivity |
| QVQLVESGGGLVQAGGSLRLSCAAYGRIFSRNAMGWYRQAPGKERELVAAITSSGGSTYYADSVKGRFTISRDNAKNTVYLQMNSLKPEDTAVYYCNAVSRWWPAGFDYWGQGTQVTVSS | high polyreactivity |
| QVQLVESGGGLVQAGGSLRLSCAAYGRIFSYYAMGWYRQAPGKERELVATINSGGSTNYADSVKGRFTISRDNAKNTVYLQMNSLKPEDTAVYYCDASPVWWYDYWGQGTQVTVSS | low polyreactivity |
| QVQLVESGGGLVQAGGSLRLSCAAYGRILRYYAMGWYRQAPGKERELVASITSGGSTYYADSVKGRFTISRDNAKNTVYLQMNSLKPEDTAVYYCAARNIYRVDLSYYAYDYWGQGTQVTVSS | high polyreactivity |
| QVQLVESGGGLVQAGGSLRLSCAAYGRTFIVNTMGWYRQAPGKERQLVAAITARGGRTYYADSVKGRFTISRDNAKNTVYLQMNSLKPEDTAVYYCNARTPPREAERYYWGQGTQVTVSS | low polyreactivity |
| QVQLVESGGGLVQAGGSLRLSCAAYGRTFRTNAMGWYRQAPGKERELVAAISTGGGITNYADSVKGRFTISRDNAKNTVYLQMNSLKPEDTAVYYCNADIYTWFQIGGYQYDYWGQGTQVTVSS | low polyreactivity |
| QVQLVESGGGLVQAGGSLRLSCAAYGRTFSHYAMGWYRQAPGKERELVAGITSGGRTYYADSVKGRFTISRDNAKNTVYLQMNSLKPEDTEVYYCAIRRYTAIWYGYWGQGTQETVSS | high polyreactivity |
